Measured values from PMC8687462 (bioRxiv, 2021).

B1: 14-3-3ζ S58E (natural protein)
chain: MDKNELVQKAKLAEQAERYDDMAACMKSVTEQGAELSNEERNLLSVAYKNVVGARRSEWRVVSSIEQKTEGAEKKQQMAREYREKIETELRDICNDVLSLLEKFLIPNASQAESKVFYLKMKGDYYRYLAEVAAGDDKKGIVDQSQQAYQEAFEISKKEMQPTHPIRLGLALNFSVFYYEILNSPEKACSLAKTAFDEAIAELDTLSEESYKDSTLIMQLLRDNLTLWTS

Experiments:
HSPB6-nhpSer16 [1] = target: HSPB6-nhpSer16 (UniProt O14558); assay: SEC-MALS; details: scale: 14-3-3 chains per HSPB6 chain
HSPB6-pSer16 [2] = target: HSPB6-pSer16 (UniProt O14558); assay: SEC-MALS; details: scale: 14-3-3 chains per HSPB6 chain
Chain of HSPB6-pSer16 (O14558 whole entry): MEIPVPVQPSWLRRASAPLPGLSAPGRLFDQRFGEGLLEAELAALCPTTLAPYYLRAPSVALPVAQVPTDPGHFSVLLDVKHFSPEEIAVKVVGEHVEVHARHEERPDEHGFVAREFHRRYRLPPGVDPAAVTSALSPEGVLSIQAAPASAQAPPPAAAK

HSPB6-nhpSer16 [3] = target: HSPB6-nhpSer16 (UniProt O14558); assay: AUC
HSPB6-pSer16 [4] = target: HSPB6-pSer16 (UniProt O14558); assay: AUC
SEC-MALS = target: the molecule itself; assay: SEC-MALS

Molecule | stoichiometry N (HSPB6-nhpSer16 [1]) | stoichiometry N (HSPB6-pSer16 [2]) | Kd (HSPB6-nhpSer16 [3]) [nM] | Kd (HSPB6-pSer16 [4]) [nM] | stoichiometry N (SEC-MALS)
14-3-3ζ (untagged, co-expressed with His-tagged HSPB6) (from UniProt P63104 1-230) (natural protein) | 1 | 1 | 120 | 92 | –
B1 | – | – | – | – | 2
